Where no end group is shown, it is not given here. [ ]: non-standard residue; d: D form. pS = N[C@@H](COP(=O)(O)O)C(=O)O
Assays:
[1] = target: T1, His6-tagged OSR1 CCT domain (human OSR1 433–527) (human, UniProt O95747 433-527); assay: peptide or protein array
[2] = target: His6-tagged SPAK CCT domain (mouse SPAK 459–556) (mouse, UniProt Q9Z1W9 459-556); assay: fluorescence polarisation
[3] = target: T1, His6-tagged OSR1 CCT domain (human OSR1 …); assay: fluorescence polarisation

T1 sequence (O95747 433-527): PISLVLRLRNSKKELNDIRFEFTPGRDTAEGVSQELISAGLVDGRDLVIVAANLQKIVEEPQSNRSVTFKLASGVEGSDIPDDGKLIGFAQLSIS

Does Ac-QLVGRFQVTSSKE (also: covalently linked to the membrane) [Wild-type WNK4 1012–1024 base peptide on the peptide array] bind [1]?
Result: binds

With QLVGRFQVTSSKE [Wild-type human WNK4 peptide 1012–1024 (QLVGRFQVTSSKE)] as the binder, how does the Ki [2] read?
The Ki was 7.2 µM.

And the Ki [3]?
Its Ki is 12.9 µM.

Does QLVSRFQVTSSKE [WNK4 peptide 1012–1024 with the −2 glycine changed to serine] bind [2]?
Result: binds

Does QLVSRFQVTSSKE [WNK4 peptide 1012–1024 with the −2 glycine changed to serine] bind [3]?
Result: binds

Which results are given for QLVARFQVTSSKE [WNK4 peptide 1012–1024 with the −2 glycine changed to alanine (QLVARFQVTSSKE)]?
binding result [2]: binds; binding result [3]: binds

What does the source list for H-SAGRRFIVSPVPE-OH [Wild-type human WNK1 peptide 1253–1265 (NH3+-SAGRRFIVSPVPE-COO-)]?
Ki [2]: 2.5 µM; Ki [3]: 5.1 µM

What does the source list for SAGHHFIVSPVPE [WNK1 peptide 1253–1265 with the arginines replaced by histidine-histidine]?
fold decrease in affinity against wild type [2]: ~7 fold; fold decrease in affinity against wild type [3]: ~7 fold

Which results are given for SAGKKFIVSPVPE [WNK1 peptide 1253–1265 with the arginines replaced by lysine-lysine]?
Ki [2]: 4.2 µM; Ki [3]: 16.3 µM

For SAGHAFIVSPVPE [WNK1 peptide 1253–1265 with the arginines replaced by histidine-alanine], which “fold decrease in affinity against wild type” value [2] is on record?
The value was 11 fold.

And the “fold decrease in affinity against wild type” value [3]?
Its value is 11 fold.

Which “fold decrease in affinity against the unphosphorylated peptide” value [2] does the source give for SAGRRFIV[pS]PVPE [WNK1 peptide 1253–1265 with phosphoserine at the +3 position] here?
Its value is roughly 2.5 fold.

And the “fold decrease in affinity against the unphosphorylated peptide” value [3]?
The value was roughly 2.5 fold.

Reference: article PMC12413468 (Communications Biology, 2025)
